Measurements taken from publication PMC5737704, “The herpes viral transcription factor ICP4 forms a novel DNA recognition complex” (Nucleic Acids Research, 2017).

Key:
[1] = target: the molecule itself; test: SEC-MALS; 0.5 ml at 1 mg/ml on Superdex 75 or Superdex 200 10/300GL in 20 mM HEPES, 150 mM NaCl, 50 mM L-Arg, 50 mM L-Glu, 0.5 mM TCEP, pH 7.9; free protein and (ICP4N) with IE3_19mer DNA
[2] = target: T1, ICP4N (ICP4 DNA binding domain) (Herpes simplex virus 1, UniProt P08392 258-487); test: SPR; 2 mM Mg2+; nanomolar Kd, value only in Fig 5C; SPR: 20 mM HEPES, 200 mM NaCl, 2 mM MgCl2, 0.05% Tween-20, pH 7.4, 25 C; NMR: 20 mM MES, 50 mM NaCl, 50 mM L-Arg, 50 mM L-Glu, 1 mM TCEP, 2 mM MgCl2, pH 6.6, 25 C; conditions: protein: recombinant; tags: N-terminal Strep-tag, HRV3C-cleaved (removed); chain copies: 2; label: 5' biotin on forward strand; blunt
T1 sequence: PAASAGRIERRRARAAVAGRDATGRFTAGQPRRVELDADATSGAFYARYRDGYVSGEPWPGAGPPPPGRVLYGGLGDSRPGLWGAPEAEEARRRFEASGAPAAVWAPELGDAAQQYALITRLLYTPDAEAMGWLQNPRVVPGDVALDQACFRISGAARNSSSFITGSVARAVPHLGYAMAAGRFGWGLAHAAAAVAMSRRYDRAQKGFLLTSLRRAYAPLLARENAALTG

[3] = target: T1, ICP4N (ICP4 DNA binding domain); test: X-ray crystallography; 2.28 A; SPR: 20 mM HEPES, 200 mM NaCl, 2 mM MgCl2, 0.05% Tween-20, pH 7.4, 25 C; NMR: 20 mM MES, 50 mM NaCl, 50 mM L-Arg, 50 mM L-Glu, 1 mM TCEP, 2 mM MgCl2, pH 6.6, 25 C; conditions: protein: recombinant; tags: N-terminal Strep-tag, HRV3C-cleaved (removed); chain copies: 2; blunt
[4] = target: T2, ICP4NdeltaIDR (ICP4deltaIDR) (Herpes simplex virus 1, UniProt P08392 288-487); test: X-ray crystallography; 2.12 A; SPR: 20 mM HEPES, 200 mM NaCl, 2 mM MgCl2, 0.05% Tween-20, pH 7.4, 25 C; NMR: 20 mM MES, 50 mM NaCl, 50 mM L-Arg, 50 mM L-Glu, 1 mM TCEP, 2 mM MgCl2, pH 6.6, 25 C; conditions: protein: recombinant; tags: N-terminal Strep-tag, HRV3C-cleaved (removed); chain copies: 2; blunt
T2 sequence: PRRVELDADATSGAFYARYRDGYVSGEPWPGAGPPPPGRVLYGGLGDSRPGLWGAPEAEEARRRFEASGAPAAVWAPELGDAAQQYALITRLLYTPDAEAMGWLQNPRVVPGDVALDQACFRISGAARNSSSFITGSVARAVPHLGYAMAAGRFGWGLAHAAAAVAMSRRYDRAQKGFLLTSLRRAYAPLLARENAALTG

B1: truncated ICP4 DNA binding domain, residues 288–487 (ICP4NΔIDR) (domain or fragment)
chain: PRRVELDADATSGAFYARYRDGYVSGEPWPGAGPPPPGRVLYGGLGDSRPGLWGAPEAEEARRRFEASGAPAAVWAPELGDAAQQYALITRLLYTPDAEAMGWLQNPRVVPGDVALDQACFRISGAARNSSSFITGSVARAVPHLGYAMAAGRFGWGLAHAAAAVAMSRRYDRAQKGFLLTSLRRAYAPLLARENAALTG
notes: Strep-tag removed with HRV3C protease; also called ICP4ΔIDR; ICP4NdIDR; source: E. coli T7 Express LysY, purified (Strep-Tactin, Superdex 75); not shown: Strep-tag, N-terminal, cleaved
stoichiometry N [1]: 2

B2: IE3_19mer, biotinylated (dsDNA)
DNA 1: CCGATCGTCCACACGGAGC
DNA 2: GCTCCGTGTGGACGATCGG
binding result [2]: binds

B3: IE3_19mer (dsDNA)
DNA 1: CCGATCGTCCACACGGAGC
DNA 2: GCTCCGTGTGGACGATCGG
binding result [3]: binds

B4: ICP4 DNA binding domain, residues 258–487 (ICP4N) (domain or fragment)
chain: PAASAGRIERRRARAAVAGRDATGRFTAGQPRRVELDADATSGAFYARYRDGYVSGEPWPGAGPPPPGRVLYGGLGDSRPGLWGAPEAEEARRRFEASGAPAAVWAPELGDAAQQYALITRLLYTPDAEAMGWLQNPRVVPGDVALDQACFRISGAARNSSSFITGSVARAVPHLGYAMAAGRFGWGLAHAAAAVAMSRRYDRAQKGFLLTSLRRAYAPLLARENAALTG
notes: gene synthesised, codon optimised for E. coli; Strep-tag removed with HRV3C protease; Homodimer by SEC-MALS, AUC and crystal structure; also called ICP4 DBD; source: E. coli T7 Express LysY, purified (Strep-Tactin, Superdex 75); not shown: Strep-tag, N-terminal, cleaved
stoichiometry N [1]: 2

B5: IE3_12mer (dsDNA)
DNA 1: CCGATCGTCCAC
DNA 2: GTGGACGATCGG
binding result [4]: binds
